Reference: US20060018902A1 (published 2006)

T1: soluble EpoR (EposR) (human, UniProt P19235 25-250)
T1 chain: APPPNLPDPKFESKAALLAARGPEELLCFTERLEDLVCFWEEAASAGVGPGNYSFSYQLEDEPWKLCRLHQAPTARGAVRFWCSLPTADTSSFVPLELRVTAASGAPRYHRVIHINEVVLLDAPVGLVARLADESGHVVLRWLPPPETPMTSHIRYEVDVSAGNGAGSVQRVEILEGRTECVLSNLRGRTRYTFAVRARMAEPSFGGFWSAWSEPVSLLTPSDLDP

T2: human erythropoietin receptor (EpoR) on human erythroleukemic cells (human, UniProt P19235 25-508)
T2 sequence (looked up): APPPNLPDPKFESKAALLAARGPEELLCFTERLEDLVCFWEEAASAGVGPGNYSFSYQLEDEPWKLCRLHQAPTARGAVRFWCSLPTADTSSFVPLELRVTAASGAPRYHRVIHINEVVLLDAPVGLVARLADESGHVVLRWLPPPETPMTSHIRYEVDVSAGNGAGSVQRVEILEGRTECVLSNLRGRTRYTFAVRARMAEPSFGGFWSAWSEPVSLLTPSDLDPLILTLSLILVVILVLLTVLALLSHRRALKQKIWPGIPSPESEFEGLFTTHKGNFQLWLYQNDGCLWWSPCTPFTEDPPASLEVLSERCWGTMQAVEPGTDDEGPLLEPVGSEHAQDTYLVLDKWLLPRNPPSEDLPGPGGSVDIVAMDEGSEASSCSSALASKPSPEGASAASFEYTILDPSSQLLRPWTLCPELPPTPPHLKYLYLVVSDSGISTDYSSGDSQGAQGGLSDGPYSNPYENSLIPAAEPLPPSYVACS

T3: soluble EpoR (EposR) (human, UniProt P19235 25-250, limits assumed)
T3 construct: also called soluble recombinant human EpoR
T3 sequence (looked up): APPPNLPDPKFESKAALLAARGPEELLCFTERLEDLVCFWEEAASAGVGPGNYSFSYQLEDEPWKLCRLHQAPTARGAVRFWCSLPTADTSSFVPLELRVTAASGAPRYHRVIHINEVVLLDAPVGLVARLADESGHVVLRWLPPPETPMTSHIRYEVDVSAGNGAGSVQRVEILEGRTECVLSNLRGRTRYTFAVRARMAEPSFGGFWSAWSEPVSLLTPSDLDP


How the values were obtained:
soluble EpoR (EposR) [1] = target: T1, soluble EpoR (EposR); experiment: yeast display flow cytometry
[2] = target: T2, human erythropoietin receptor (EpoR) on …; experiment: cell-based or functional assay
soluble EpoR (EposR) [3] = target: T3, soluble EpoR (EposR); experiment: SPR (BIAcore), IgG2/K antibody, EposR as test antigen
Method: (§1) BIAcore analyses were performed on a BIAcore 2000 utilizing the BIAcontrol software version 3.1.0 and on a BIAcore 3000 utilizing the BIAcontrol software version 4.0.1. (BIAcore, Uppsala, Sweden) using EposR as the test antigen.

soluble EpoR (EposR) [4] = target: T3, soluble EpoR (EposR); experiment: SPR (BIAcore), IgG2/K sub-variant of Ab12.6, EposR as test antigen
Method: as §1
Sub-variants also were subjected to BIAcore analyses as described above.

Kd (soluble EpoR (EposR) [1]) [nM]	EC50 (cell proliferation) [2] [nM]	Emax (cell proliferation, absorbance) [2]	Kd (soluble EpoR (EposR) [3]) [nM]	koff (soluble EpoR (EposR) [3]) [s⁻¹]	kon (soluble EpoR (EposR) [3]) [M⁻¹ s⁻¹]	Kd (soluble EpoR (EposR) [4]) [nM]	koff (soluble EpoR (EposR) [4]) [s⁻¹]	kon (soluble EpoR (EposR) [4]) [M⁻¹ s⁻¹]	Binder
	1.13	2.65 absorbance (OD 490 nm)				22	0.0055	250000	Ab12.118 (antibody, IgG2, V domains shown) VH: QVQLQESGPGLVKPSETLSLTCTVSGASISSYYWSWIRQPPGKGLEWIGYIGYSGSTNYNPSLKSRVTISVDTSKNQFSLKLRSVTAADTAVYYCARERLGIGDYWGQGTLVTVSS VL: DIQLTQSPSSLSASVGDRVTITCRASQGIRNDLGWYQQKPGKAPKRLIYAASSLQSGVPSRFSGSGSGTEFTLTISSLQPEDFATYYCLQHNTYPPTFGQGTKVEIK
	0.465	2.3 absorbance (OD 490 nm)				31	0.0063	210000	Ab12.121 (antibody, IgG2, V domains shown) VH: QVQLQESGPGLVKPSETLSLTCTVSGASISSYYWSWIRQPPGKGLEWIGYIGGSGSTNYNPSLKSRVTISVDTSKNQFSLKLRSVTAADTAVYYCARERLGIGDYWGQGTLVTVSS VL: DIQLTQSPSSLSASVGDRVTITCRASQGIRNDLGWYQQKPGKAPKRLIYAASSLQSGVPSRFSGSGSGTEFTLTISSLQPEDFATYYCLQHNTYPPTFGQGTKVEIK
	0.42	2.4 absorbance (OD 490 nm)				23	0.0049	220000	Ab12.122 (antibody, IgG2, V domains shown) VH: QVQLQESGPGLVKPSETLSLTCTVSGASISSYYWSWIRQPPGKGLEWIGYIYGEGSTNYNPSLKSRVTISVDTSKNQFSLKLRSVTAADTAVYYCARERLGIGDYWGQGTLVTVSS VL: DIQLTQSPSSLSASVGDRVTITCRASQGIRNDLGWYQQKPGKAPKRLIYAASSLQSGVPSRFSGSGSGTEFTLTISSLQPEDFATYYCLQHNTYPPTFGQGTKVEIK
	0.91	2.7 absorbance (OD 490 nm)				25	0.0033	130000	Ab12.123 (antibody, IgG2, V domains shown) VH: QVQLQESGPGLVKPSETLSLTCTVSGASISSYYWSWIRQPPGKGLEWIGYIGYEGSTNYNPSLKSRVTISVDTSKNQFSLKLRSVTAADTAVYYCARERLGIGDYWGQGTLVTVSS VL: DIQLTQSPSSLSASVGDRVTITCRASQGIRNDLGWYQQKPGKAPKRLIYAASSLQSGVPSRFSGSGSGTEFTLTISSLQPEDFATYYCLQHNTYPPTFGQGTKVEIK
	0.34	2 absorbance (OD 490 nm)				7	0.002	270000	Ab12.120 (antibody, IgG2, V domains shown) VH: QVQLQESGPGLVKPSETLSLTCTVSGASISSYYWSWIRQPPGKGLEWIGYIYYEGSTNYNPSLKSRVTISVDTSKNQFSLKLRSVTAADTAVYYCARERLGIGDYWGQGTLVTVSS VL: DIQLTQSPSSLSASVGDRVTITCRASQGIRNDLGWYQQKPGKAPKRLIYAASSLQSGVPSRFSGSGSGTEFTLTISSLQPEDFATYYCLQHNTYPPTFGQGTKVEIK
	1.34	2.53 absorbance (OD 490 nm)				21	0.0044	210000	Ab12.119 (antibody, IgG2, V domains shown) VH: QVQLQESGPGLVKPSETLSLTCTVSGASISSYYWSWIRQPPGKGLEWIGYIYGSGSTNYNPSLKSRVTISVDTSKNQFSLKLRSVTAADTAVYYCARERLGIGDYWGQGTLVTVSS VL: DIQLTQSPSSLSASVGDRVTITCRASQGIRNDLGWYQQKPGKAPKRLIYAASSLQSGVPSRFSGSGSGTEFTLTISSLQPEDFATYYCLQHNTYPPTFGQGTKVEIK

The remaining lines, values behind:

Binder	Kd (soluble EpoR (EposR) [1]) [nM]	EC50 (cell proliferation) [2] [nM]	Emax (cell proliferation, absorbance) [2]	Kd (soluble EpoR (EposR) [3]) [nM]	koff (soluble EpoR (EposR) [3]) [s⁻¹]	kon (soluble EpoR (EposR) [3]) [M⁻¹ s⁻¹]	Kd (soluble EpoR (EposR) [4]) [nM]	koff (soluble EpoR (EposR) [4]) [s⁻¹]	kon (soluble EpoR (EposR) [4]) [M⁻¹ s⁻¹]
Ab12 41/40 scFv (linker 41 as tether, linker 40 as scFv linker), displayed on yeast (scFv) scFv: GENKVEYAPALMALSQVQLQESGPGLVKPSETLSLTCTVSGASISSYYWSWIRQPPGKGLEWIGYIYYSGSTNYNPSLKSRVTISVDTSKNQFSLKLRSVTAADTAVYYCARERLGIGDYWGQGTLVTVSSGPAKELTPLKEAKVSDIQLTQSPSSLSASVGDRVTITCRASQGIRNDLGWYQQKPGKAPKRLIYAASSLQSGVPSRFSGSGSGTEFTLTISSLQPEDFATYYCLQHNTYPPTFGQGTKVEIK	4								
Ab12 IgG2/K (antibody, V domains shown, Human IgG2/kappa) VH: QVQLQESGPGLVKPSETLSLTCTVSGASISSYYWSWIRQPPGKGLEWIGYIYYSGSTNYNPSLKSRVTISVDTSKNQFSLKLRSVTAADTAVYYCARERLGIGDYWGQGTLVTVSS VL: DIQLTQSPSSLSASVGDRVTITCRASQGIRNDLGWYQQKPGKAPKRLIYAASSLQSGVPSRFSGSGSGTEFTLTISSLQPEDFATYYCLQHNTYPPTFGQGTKVEIK		1.29	1.98 absorbance (OD 490 nm)	11	0.0013	140000			
Ab12.6 (antibody, V domains shown, CDRH2 Y Y S is changed to G G E against Ab12; also called H2-1-3 R2 #6) VH: QVQLQESGPGLVKPSETLSLTCTVSGASISSYYWSWIRQPPGKGLEWIGYIGGEGSTNYNPSLKSRVTISVDTSKNQFSLKLRSVTAADTAVYYCARERLGIGDYWGQGTLVTVSS VL: DIQLTQSPSSLSASVGDRVTITCRASQGIRNDLGWYQQKPGKAPKRLIYAASSLQSGVPSRFSGSGSGTEFTLTISSLQPEDFATYYCLQHNTYPPTFGQGTKVEIK		0.58	2.81 absorbance (OD 490 nm)	32	0.0048	150000			
Ab12.70 (antibody, V domains shown, also called H2-4-1 R2 #8,9) VH: QVQLQESGPGLVKPSETLSLTCTVSGASISSYYWSWIRQPPGKGLEWIGYIYSPSSTNYNPSLKSRVTISVDTSKNQFSLKLRSVTAADTAVYYCARERLGIGDYWGQGTLVTVSS VL: DIQLTQSPSSLSASVGDRVTITCRASQGIRNDLGWYQQKPGKAPKRLIYAASSLQSGVPSRFSGSGSGTEFTLTISSLQPEDFATYYCLQHNTYPPTFGQGTKVEIK				6	0.00099	160000			
Ab12.56 (antibody, V domains shown, CDRH2 Y Y S is changed to A G T against Ab12) VH: QVQLQESGPGLVKPSETLSLTCTVSGASISSYYWSWIRQPPGKGLEWIGYIAGTGSTNYNPSLKSRVTISVDTSKNQFSLKLRSVTAADTAVYYCARERLGIGDYWGQGTLVTVSS VL: DIQLTQSPSSLSASVGDRVTITCRASQGIRNDLGWYQQKPGKAPKRLIYAASSLQSGVPSRFSGSGSGTEFTLTISSLQPEDFATYYCLQHNTYPPTFGQGTKVEIK		1.17	2.51 absorbance (OD 490 nm)	20	0.0019	94000			
Ab12 scFv construct with linker 41 in the tether position and linker 34 in the scFv linker position, displayed on yeast (scFv) scFv: GENKVEYAPALMALSQVQLQESGPGLVKPSETLSLTCTVSGASISSYYWSWIRQPPGKGLEWIGYIYYSGSTNYNPSLKSRVTISVDTSKNQFSLKLRSVTAADTAVYYCARERLGIGDYWGQGTLVTVSSGHEAAAVMQVQYPASDIQLTQSPSSLSASVGDRVTITCRASQGIRNDLGWYQQKPGKAPKRLIYAASSLQSGVPSRFSGSGSGTEFTLTISSLQPEDFATYYCLQHNTYPPTFGQGTKVEIK	8.5								
Ab12 scFv construct with linker 41 in the tether position and the Gly/Ser linker (WT) in the scFv linker position, displayed on yeast (scFv) scFv: GENKVEYAPALMALSQVQLQESGPGLVKPSETLSLTCTVSGASISSYYWSWIRQPPGKGLEWIGYIYYSGSTNYNPSLKSRVTISVDTSKNQFSLKLRSVTAADTAVYYCARERLGIGDYWGQGTLVTVSSGGGGSGGGGSGGGGSDIQLTQSPSSLSASVGDRVTITCRASQGIRNDLGWYQQKPGKAPKRLIYAASSLQSGVPSRFSGSGSGTEFTLTISSLQPEDFATYYCLQHNTYPPTFGQGTKVEIK	5								
Ab12 scFv construct with Gly/Ser linker (WT) in both the tether and scFv linker positions, displayed on yeast (scFv) scFv: GGGGSGGGGSGGGGSQVQLQESGPGLVKPSETLSLTCTVSGASISSYYWSWIRQPPGKGLEWIGYIYYSGSTNYNPSLKSRVTISVDTSKNQFSLKLRSVTAADTAVYYCARERLGIGDYWGQGTLVTVSSGGGGSGGGGSGGGGSDIQLTQSPSSLSASVGDRVTITCRASQGIRNDLGWYQQKPGKAPKRLIYAASSLQSGVPSRFSGSGSGTEFTLTISSLQPEDFATYYCLQHNTYPPTFGQGTKVEIK	9								
